Results as given in the supplement of paper PMC10567573.

B1: OR10K2 (parent)
chain: SLARLQQLLFVIFLLLYLFTLGTN

Variants of: B1
Assay: protein stability index of a GFP-peptide fusion (GPS, HEK-293T) (PSI 1-6); higher = more stable
Conditions: c terminus: a fixed tail appended
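Also: lentivirally expressed fusions sorted by FACS into six bins by GFP to DsRed ratio, PSI derived from sequencing read proportions per bin multiplied by bin number.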

Variant | protein stability index
SLARCQQLLFVIFLLLYLFTLGTN [L5C] | 3.1
SLARMQQLLFVIFLLLYLFTLGTN [L5M] | 1.41
SLARSQQLLFVIFLLLYLFTLGTN [L5S] | 3.05
SLARWQQLLFVIFLLLYLFTLGTN [L5W] | 3.37
SLARIQQLLFVIFLLLYLFTLGTN [L5I] | 1.78
SLARRQQLLFVIFLLLYLFTLGTN [L5R] | 1.85
SLARHQQLLFVIFLLLYLFTLGTN [L5H] | 2.62
SLARFQQLLFVIFLLLYLFTLGTN [L5F] | 2.59
SLARAQQLLFVIFLLLYLFTLGTN [L5A] | 3.68
SLARNQQLLFVIFLLLYLFTLGTN [L5N] | 2
SLARTQQLLFVIFLLLYLFTLGTN [L5T] | 2.28
SLARGQQLLFVIFLLLYLFTLGTN [L5G] | 3.76
SLAREQQLLFVIFLLLYLFTLGTN [L5E] | 2.27
SLARKQQLLFVIFLLLYLFTLGTN [L5K] | 2.85
SLARPQQLLFVIFLLLYLFTLGTN [L5P] | 2.02
SLARDQQLLFVIFLLLYLFTLGTN [L5D] | 3.05
SLARVQQLLFVIFLLLYLFTLGTN [L5V] | 2.44
SMARLQQLLFVIFLLLYLFTLGTN [L2M] | 2.45
SFARLQQLLFVIFLLLYLFTLGTN [L2F] | 2.52
SYARLQQLLFVIFLLLYLFTLGTN [L2Y] | 2.34
SDARLQQLLFVIFLLLYLFTLGTN [L2D] | 2.06
SAARLQQLLFVIFLLLYLFTLGTN [L2A] | 3.88
SCARLQQLLFVIFLLLYLFTLGTN [L2C] | 2.55
SRARLQQLLFVIFLLLYLFTLGTN [L2R] | 2.48

Variant | protein stability index
SKARLQQLLFVIFLLLYLFTLGTN [L2K] | 2.49
SIARLQQLLFVIFLLLYLFTLGTN [L2I] | 3.49
SGARLQQLLFVIFLLLYLFTLGTN [L2G] | 1.4
STARLQQLLFVIFLLLYLFTLGTN [L2T] | 2.59
SSARLQQLLFVIFLLLYLFTLGTN [L2S] | 2.94
SEARLQQLLFVIFLLLYLFTLGTN [L2E] | 2.01
SWARLQQLLFVIFLLLYLFTLGTN [L2W] | 1.88
SQARLQQLLFVIFLLLYLFTLGTN [L2Q] | 2.62
SNARLQQLLFVIFLLLYLFTLGTN [L2N] | 3.77
SLERLQQLLFVIFLLLYLFTLGTN [A3E] | 1.91
SLWRLQQLLFVIFLLLYLFTLGTN [A3W] | 2.23
SLFRLQQLLFVIFLLLYLFTLGTN [A3F] | 1.86
SLQRLQQLLFVIFLLLYLFTLGTN [A3Q] | 3.09
SLLRLQQLLFVIFLLLYLFTLGTN [A3L] | 2.75
SLGRLQQLLFVIFLLLYLFTLGTN [A3G] | 1.49
SLRRLQQLLFVIFLLLYLFTLGTN [A3R] | 1.76
SLNRLQQLLFVIFLLLYLFTLGTN [A3N] | 3.31
SLHRLQQLLFVIFLLLYLFTLGTN [A3H] | 3.07
SLTRLQQLLFVIFLLLYLFTLGTN [A3T] | 1.91
SLMRLQQLLFVIFLLLYLFTLGTN [A3M] | 1.88
SLKRLQQLLFVIFLLLYLFTLGTN [A3K] | 1.51
SLARLAQLLFVIFLLLYLFTLGTN [Q6A] | 2.61
SLARLHQLLFVIFLLLYLFTLGTN [Q6H] | 2.35
SLARLIQLLFVIFLLLYLFTLGTN [Q6I] | 2.84

Variant | protein stability index
SLARLVQLLFVIFLLLYLFTLGTN [Q6V] | 2.45
SLARLCQLLFVIFLLLYLFTLGTN [Q6C] | 2.58
SLARLNQLLFVIFLLLYLFTLGTN [Q6N] | 2.84
SLARLTQLLFVIFLLLYLFTLGTN [Q6T] | 2.68
SLARLKQLLFVIFLLLYLFTLGTN [Q6K] | 3.25
SLARLPQLLFVIFLLLYLFTLGTN [Q6P] | 1.38
SLARLGQLLFVIFLLLYLFTLGTN [Q6G] | 2.56
SLARLLQLLFVIFLLLYLFTLGTN [Q6L] | 2.97
SLARLMQLLFVIFLLLYLFTLGTN [Q6M] | 2.94
SLARLEQLLFVIFLLLYLFTLGTN [Q6E] | 3.01
SLARLDQLLFVIFLLLYLFTLGTN [Q6D] | 3.29
SLARLSQLLFVIFLLLYLFTLGTN [Q6S] | 2.43
SLARLFQLLFVIFLLLYLFTLGTN [Q6F] | 2.72
SLAFLQQLLFVIFLLLYLFTLGTN [R4F] | 2.36
SLADLQQLLFVIFLLLYLFTLGTN [R4D] | 1.62
SLAPLQQLLFVIFLLLYLFTLGTN [R4P] | 2.24
SLAKLQQLLFVIFLLLYLFTLGTN [R4K] | 2.19
SLAHLQQLLFVIFLLLYLFTLGTN [R4H] | 2.36
SLAMLQQLLFVIFLLLYLFTLGTN [R4M] | 3.67
SLAYLQQLLFVIFLLLYLFTLGTN [R4Y] | 2.57
SLASLQQLLFVIFLLLYLFTLGTN [R4S] | 2.62
SLAWLQQLLFVIFLLLYLFTLGTN [R4W] | 2.28
SLAALQQLLFVIFLLLYLFTLGTN [R4A] | 4.04
SLALLQQLLFVIFLLLYLFTLGTN [R4L] | 3.28

Variant | protein stability index
SLAILQQLLFVIFLLLYLFTLGTN [R4I] | 3.36
SLANLQQLLFVIFLLLYLFTLGTN [R4N] | 2.73
SLAELQQLLFVIFLLLYLFTLGTN [R4E] | 3.95
MLARLQQLLFVIFLLLYLFTLGTN [S1M] | 3.25
VLARLQQLLFVIFLLLYLFTLGTN [S1V] | 2.31
ELARLQQLLFVIFLLLYLFTLGTN [S1E] | 2.11
KLARLQQLLFVIFLLLYLFTLGTN [S1K] | 2.87
CLARLQQLLFVIFLLLYLFTLGTN [S1C] | 2.44
TLARLQQLLFVIFLLLYLFTLGTN [S1T] | 2.85
NLARLQQLLFVIFLLLYLFTLGTN [S1N] | 2.38
WLARLQQLLFVIFLLLYLFTLGTN [S1W] | 1.59
YLARLQQLLFVIFLLLYLFTLGTN [S1Y] | 3.24
RLARLQQLLFVIFLLLYLFTLGTN [S1R] | 2.11
FLARLQQLLFVIFLLLYLFTLGTN [S1F] | 1.35
DLARLQQLLFVIFLLLYLFTLGTN [S1D] | 1.54
HLARLQQLLFVIFLLLYLFTLGTN [S1H] | 2.88
ALARLQQLLFVIFLLLYLFTLGTN [S1A] | 2.7
QLARLQQLLFVIFLLLYLFTLGTN [S1Q] | 2.21
GLARLQQLLFVIFLLLYLFTLGTN [S1G] | 2.86
LLARLQQLLFVIFLLLYLFTLGTN [S1L] | 3.72
ILARLQQLLFVIFLLLYLFTLGTN [S1I] | 2.21
PLARLQQLLFVIFLLLYLFTLGTN [S1P] | 2.46
